According to PMC10636138:

Target: SARS-CoV-2 B.1 (Wuhan) RBD
Experiment: BLI

Q: For CR3022, which Kd is on record?
A: 22.1 nM
